Source: US11858972B2, “Micropeptides and uses thereof” (FUNDACIÓ PRIVADA INSTITUT D'INVESTIGACIÓ ONCOLÒGICA DE VALL …, priority 2018, dated 2024)

Columns and labels:
[1] = tested on: BxPC-3 pancreatic cancer cell line; assay: Cell viability by CellTiter-Glo after doxycycline-induced expression; assay type: cell-based; settings: BxPC-3, expression induced by doxycycline for 4 days
Description: (§1) FIG. 5. Micropeptide of sequence SEQ ID NO: 1 overexpression induces cell cycle arrest and cellular senescence. BxPC-3 cells were transduced with an inducible lentivirus coding HA-SEQ ID NO: 1. Micropeptide of sequence SEQ ID NO: 1 expression was induced by doxycycline treatment for 4 days. (A) Phase contrast images of SEQ ID NO:1-expressing cells and control cells. (B) Cell viability analysis by CellTiter-Glo assay. (C) Cell cycle analysis by flow cytometry. Left, histogram plots. Right, quantification of the number of cells in every cell cycle phase (D) Analysis of p27 and p21 expression by qPCR. (E) Western Blot of the indicated cells using anti-HA and anti-p21 antibodies. (F) Quantification of the number of SA-β-Gal positive cells in doxycycline-treated and untreated cells. (G) Representative pictures of the cell quantified in (F). Graphs show the mean±SEM, using at least 3 technical replicates. **P<0.01 ***P<0,001 **** P<0.0001, two-tailed t-test.
(§2) Micropeptide of SEQ ID NO: 1 expression was induced in BxPC3 cells by treatment with doxycycline (2 μg/ml) for 4 days. Cells were fixed using 100% ethanol at 4° C., stained with Propidium Iodide, and cell cycle was analysed by flow cytometry (LSR-Fortessa cytometer). Cell viability in micropeptide of SEQ ID NO: 1-expressing cells was evaluated using CellTiter-Glo 2.0 (Promega) following manufacturer's instructions.

[2] = tested on: BxPC-3 pancreatic cancer cell line; assay: Cell cycle analysis by flow cytometry; assay type: cell-based; settings: BxPC-3, expression induced by doxycycline for 4 days
Description: as §1, §2

[3] = tested on: CDK inhibitors p27 and p21; assay: p27 and p21 expression by qPCR and Western Blot in BxPC-3; assay type: cell-based; settings: BxPC-3, doxycycline-induced expression
Description: as §1
Total RNA was extracted with Trizol® and treated with TURBO™ DNase following provider's recommendations. 1 μg of RNA was retrotranscribed using iScript™ cDNA Synthesis Kit (BioRad). Gene expression was analysed by quantitative real time PCR using PowerUp SYBR Green Master Mix (Thermo Fisher Scientific) in the 7900HT Fast Real-Time PCR System (Applied Biosystems). Cycle threshold (Ct) values were normalized to GAPDH. […]

[4] = tested on: BxPC-3 cells; assay: SA-β-gal staining assay; assay type: cell-based; settings: BxPC-3, doxycycline-treated vs untreated
Description: as §1
For SA-β-gal staining, cells were fixed and stained using a commercial senescence β-galactosidase staining kit (Cell Signalling) following manufacture's protocol.

[5] = tested on: SkBR-3, HPAF II, MIA PaCa-2 and BxPC-3 cells; assay: Cell death upon puromycin selection stress (phase contrast images); assay type: cell-based; settings: Puromycin selection of infected cells, pMSCV non-inducible vector; several pancreatic and breast cancer cell lines
Experimental: FIG. 6. Micropeptide of sequence SEQ ID NO: 1 expression induces cell death upon cellularstress. SkBR-3, HPAF II, MIA PaCa-2 and BxPC-3 cells were infected with empty or SEQ ID NO: 1-HA retroviruses, and selected by puromycin. Micropeptide of sequence SEQ ID NO: 1 expression was analyzed by qPCR (A) and by Western blot (B). (C) Phase contrast images of the indicated cells 3 days after selection with puromycin. […] (E) BXPC-3 cells were infected with an inducible lentivirus encoding SEQ ID NO: 1-HA, and selected with Neomycin. Micropeptide of sequence SEQ ID NO: 1 expression was induced by doxycycline, and cells were treated with Doxorubicin or Actinomycin D. (E) Cell viability of the indicated cells measured by crystal violet staining.

[6] = tested on: squamous cell carcinoma cell line H10; assay: Cell proliferation assay (growth curve, 14 days); assay type: cell-based; settings: H10, monitored for 14 days, vs control vector
Description: FIG. 8. SEQ ID NO: 1 overexpression reduces cell proliferation. A549 and H10 cells were transduced with an inducible lentivirus coding HA-SEQ ID NO: 1. SEQ ID NO: 1 expression was induced by doxycycline treatment for 14 days. (A) Growth curve of transduced cells over 14 days of SEQ ID NO:1 expression. (B) Cell cycle analysis by flow cytometry. Left, histogram plots. Right, quantification of the number of cells in every cell cycle phase. Graphs show the mean±SD, using at least 3 technical replicates. **** P<0.0001, two-tailed t-test.
A549 and H10 cell lines were dissociated by trypsin digestion and seeded into 24-well cell culture plates at density 5×10^3 cells/well. Every two days, cells were dissociated from wells and counted using a Neubauer chamber. Cell growth curves were monitored for 14 days.

[7] = tested on: H10 cancer cells; assay: Invasion assay (Boyden chamber, Matrigel); assay type: cell-based; settings: H10, after 4 days of doxycycline induction, 24 h invasion
Experimental: (§3) FIG. 9. SEQ ID NO: 1 overexpression impairs invasiveness and reduces mesenchymal traits in A549 and H10 cell lines. Invasion of indicated cells was analyzed in matrigel-coated inserts. (A) The undersides of membrane inserts containing invaded cells were fixed and stained with crystal violet and photographed 24 h after plating. (B) Number of invasive cells was calculated using ImageJ software. Bars plots show relative number of cells invading the chamber. (C) Analysis of several mesenchymal genes by qPCR. mRNA expression is shown relative to the control. * P<0.05, **P<0.01 two-tailed t-test.
BxPC-3, MDA-MB-231, A549 and H10 cell lines were trypsinized, counted, and 20.000 cells/well were seeded in triplicate in a Corning® cell culture insert (Boyden chamber) in which the porous membrane is coated with a layer of Matrigel® to mimic an extra cellular matrix (ECM). Cells were allowed to invade through the coated membrane for 24 hours in the cell incubator at 37° C. After the incubation time, culture inserts were fixed in methanol 5 minutes at RT and stained using Crystal Violet 20 minutes at RT. The excess of Crystal Violet staining was removed washing with PBS and pictures of the chambers were taken using an Olympus CeIIR microscope. Invading cells were counted using ImageJ and fold change was calculated normalizing to the control.

[8] = tested on: EMT regulators VIMENTIN, SLUG, SNAIL, N-CADHERIN, TWIST1, TWIST2, ZEB1 and ZEB2; assay: Mesenchymal gene expression by qPCR in H10 SCC cell line; assay type: cell-based
Experimental: as §3
Total RNA was extracted with Trizol® and treated with TURBO™ DNase following provider's recommendations. 1 μg of RNA was retrotranscribed using iScript™ cDNA Synthesis Kit (BioRad). Gene expression was analysed by quantitative real time PCR using PowerUp SYBR Green Master Mix (Thermo Fisher Scientific) in the 7900HT Fast Real-Time PCR System (Applied Biosystems). Cycle threshold (Ct) values were normalized to GAPDH.

[9] = tested on: ubiquitylated proteins; assay: Co-Immunoprecipitation using Anti-HA and Western Blot; assay type: binding; settings: immunoprecipitation with Anti-HA
Description: FIG. 11. Micropeptide of sequence SEQ ID NO: 1 expression changes cell ubiquitylation pattern. (A) Co-Immunoprecipitation using Anti-HA and Western Blot experiments indicate the presence of ubiquitylated proteins in the pull down of SEQ ID NO: 1 expressing cells. (B) Analysis of ubiquitylated protein levels by Western Blot in SEQ ID NO: 1 or empty vector BxPC-3 infected cells after proteasome blocking treatment with MG132.

B1: SEQ ID NO: 1: highly conserved 87 aa micropeptide coded by the lncRNA TINCR; predicted ubiquitin-like protein (protein, listed as Homo sapiens)
chain: MEGLRRGLSRWKRYHIKVHLADEALLLPLTVRPRDTLSDLRAQLVGQGVSSWKRAFYYNARRLDDHQTVRDARLQDGSVLLLVSDPR
cell proliferation [1]: significantly reduces cell proliferation
cell cycle [2]: induces cell cycle arrest in G1 phase
expression of the CDK inhibitors p27 and p21 [3]: upregulation
number of senescent cells (SA-β-Gal-positive cells) [4]: increase
cell death when coupled with cellular stress [5]: extensive cell death
growth rate [6]: consistently lower growth rate
invasion [7]: significant decrease in invasion
expression of the EMT regulators VIMENTIN, SLUG, SNAIL, N-CADHERIN, TWIST1, TWIST2, ZEB1 and ZEB2 [8]: represses the expression
binding to ubiquitylated proteins [9]: binds to ubiquitylated proteins
